Assay results reported in IntAct's records for PubMed 11163258.

B1: Platelet-activating factor acetylhydrolase IB subunit beta (Homo sapiens), P43034 (parent)
chain: MVLSQRQRDELNRAIADYLRSNGYEEAYSVFKKEAELDVNEELDKKYAGLLEKKWTSVIRLQKKVMELESKLNEAKEEFTSGGPLGQKRDPKEWIPRPPEKYALSGHRSPVTRVIFHPVFSVMVSASEDATIKVWDYETGDFERTLKGHTDSVQDISFDHSGKLLASCSADMTIKLWDFQGFECIRTMHGHDHNVSSVAIMPNGDHIVSASRDKTIKMWEVQTGYCVKTFTGHREWVRMVRPNQDGTLIASCSNDQTVRVWVVATKECKAELREHEHVVECISWAPESSYSSISEATGSETKKSGKPGPFLLSGSRDKTIKMWDVSTGMCLMTLVGHDNWVRGVLFHSGGKFILSCADDKTLRVWDYKNKRCMKTLNAHEHFVTSLDFHKTAPYVVTGSVDQTVKVWECR
partner: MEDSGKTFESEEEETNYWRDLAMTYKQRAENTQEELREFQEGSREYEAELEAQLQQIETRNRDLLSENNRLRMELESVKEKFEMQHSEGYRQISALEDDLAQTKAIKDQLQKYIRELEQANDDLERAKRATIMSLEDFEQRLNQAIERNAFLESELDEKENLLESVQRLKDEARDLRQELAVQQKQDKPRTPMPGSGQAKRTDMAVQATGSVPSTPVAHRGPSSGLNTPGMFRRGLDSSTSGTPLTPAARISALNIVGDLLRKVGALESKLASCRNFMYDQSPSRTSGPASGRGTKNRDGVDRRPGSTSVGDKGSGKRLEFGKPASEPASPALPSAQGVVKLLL

Variants of: B1
Settings: with nde1_mouse Nde1, Q9CZA6

Row | effect of a mutation on the interaction | Variant
1 | decreasing interaction | MVLSQRQRDELNRAIADYLRSNGYEEAYSVFKKEAELDVNEELDKKYAGLLEKKWTSVIRLQKKVMELESKLNEAKEEFTSGGPLGQKRDPKEWIPRPPEKYALSGHRSPVTRVIFHPVFSVMVSASEDATIKVWDYETGDFERTLKGRTDSVQDISFDHSGKLLASCSADMTIKLWDFQGFECIRTMHGHDHNVSSVAIMPNGDHIVSASRDKTIKMWEVQTGYCVKTFTGHREWVRMVRPNQDGTLIASCSNDQTVRVWVVATKECKAELREHEHVVECISWAPESSYSSISEATGSETKKSGKPGPFLLSGSRDKTIKMWDVSTGMCLMTLVGHDNWVRGVLFHSGGKFILSCADDKTLRVWDYKNKRCMKTLNAHEHFVTSLDFHKTAPYVVTGSVDQTVKVWECR [H149R]
2 | decreasing interaction | MVLSQRQRDELNRAIADYLRSNGYEEAYSVFKKEAELDVNEELDKKYAGLLEKKWTSVIRLQKKVMELESKLNEAKEEFTSGGPLGQKRDPKEWIPRPPEKYALSGHRSPVTRVIFHPVFSVMVSASEDATIKVWDYETGDFERTLKGHTDSVQDISFDHSGKLLASCPADMTIKLWDFQGFECIRTMHGHDHNVSSVAIMPNGDHIVSASRDKTIKMWEVQTGYCVKTFTGHREWVRMVRPNQDGTLIASCSNDQTVRVWVVATKECKAELREHEHVVECISWAPESSYSSISEATGSETKKSGKPGPFLLSGSRDKTIKMWDVSTGMCLMTLVGHDNWVRGVLFHSGGKFILSCADDKTLRVWDYKNKRCMKTLNAHEHFVTSLDFHKTAPYVVTGSVDQTVKVWECR [S169P]
